Reference: paper PMC6171530 (Nature chemical biology, 2018)

B1: His6-RNR-α (enzyme, human, UniProt P23921 1-792, looked up)
chain: MHVIKRDGRQERVMFDKITSRIQKLCYGLNMDFVDPAQITMKVIQGLYSGVTTVELDTLAAETAATLTTKHPDYAILAARIAVSNLHKETKKVFSDVMEDLYNYINPHNGKHSPMVAKSTLDIVLANKDRLNSAIIYDRDFSYNYFGFKTLERSYLLKINGKVAERPQHMLMRVSVGIHKEDIDAAIETYNLLSERWFTHASPTLFNAGTNRPQLSSCFLLSMKDDSIEGIYDTLKQCALISKSAGGIGVAVSCIRATGSYIAGTNGNSNGLVPMLRVYNNTARYVDQGGNKRPGAFAIYLEPWHLDIFEFLDLKKNTGKEEQRARDLFFALWIPDLFMKRVETNQDWSLMCPNECPGLDEVWGEEFEKLYASYEKQGRVRKVVKAQQLWYAIIESQTETGTPYMLYKDSCNRKSNQQNLGTIKCSNLCTEIVEYTSKDEVAVCNLASLALNMYVTSEHTYDFKKLAEVTKVVVRNLNKIIDINYYPVPEACLSNKRHRPIGIGVQGLADAFILMRYPFESAEAQLLNKQIFETIYYGALEASCDLAKEQGPYETYEGSPVSKGILQYDMWNVTPTDLWDWKVLKEKIAKYGIRNSLLIAPMPTASTAQILGNNESIEPYTSNIYTRRVLSGEFQIVNPHLLKDLTERGLWHEEMKNQIIACNGSIQSIPEIPDDLKQLYKTVWEISQKTVLKMAAERGAFIDQSQSLNIHIAEPNYGKLTSMHFYGWKQGLKTGMYYLRTRPAANPIQFTLNKEKLKDKEKVSKEEEEKERNTAAMVCSLENRDECLMCGS
B2: His6-HA-HNH&APIM (domain or fragment, UniProt Q5FWF4 929-1079, looked up)
chain: NSWDSRFCSLKCQEEFWIRSNNSYLRAKVFETEHGVCQLCNVNAQELFLRLRDAPKSQRKNLLYATWTSKLPLEQLNEMIRNPGEGHFWQVDHIKPVYGGGGQCSLDNLQTLCTVCHKERTARQAKERSQVRRQSLASKHGSDITRFLVKK

What was measured:
[1] = molecular target: the molecule itself; experiment: negative-stain electron microscopy
His6-RNR-α = molecular target: B1; experiment: pull-down

| binding result (His6-RNR-α) | Binder | stoichiometry N [1] |
| --- | --- | --- |
|  | B1 | 6 |
| binds | B2 |  |
